Paper PMC4945038, “Rad51 Nucleoprotein Filament Disassembly Captured Using Fluorescent Plasmodium falciparum SSB as a Reporter for Single-Stranded DNA”

B1: (dT)35 (ssDNA)
DNA: TTTTTTTTTTTTTTTTTTTTTTTTTTTTTTTTTTT
B2: (dT)70 (ssDNA)
DNA: TTTTTTTTTTTTTTTTTTTTTTTTTTTTTTTTTTTTTTTTTTTTTTTTTTTTTTTTTTTTTTTTTTTTTT

Legend:
Pf-SSB-MDCC [1] = biological target: T1, Pf-SSB-MDCC (Plasmodium falciparum, UniProt Q8I415 77-284); experiment: ITC; 200 mM NaCl; stoichiometric, 2 (dT)35 per tetramer; dHobs -71.8±0.2 kcal/mol; Titration and stopped-flow: 20 mM Tris-Cl pH 8, 0.1 mM EDTA, 100 mM NaCl, 1 mM TCEP, 25 C; ITC same with 200 mM NaCl; Rad51 filaments: 25 mM Tris-Cl pH 7.7, 1 mM TCEP, 5% glycerol, 10 mM MgCl2, 50 mM NaCl, 3 mM ATP, ATP regeneration; conditions: protein: recombinant; tags: MDCC on Cys93; chain copies: 4; single strand; 2 copies per tetramer
Pf-SSB = Pf-SSB (Plasmodium falciparum, UniProt Q8I415 77-284); experiment: ITC; 200 mM NaCl; stoichiometric, 2 (dT)35 per tetramer; dHobs -73.1±0.2 kcal/mol; Titration and stopped-flow: 20 mM Tris-Cl pH 8, 0.1 mM EDTA, 100 mM NaCl, 1 mM TCEP, 25 C; ITC same with 200 mM NaCl; Rad51 filaments: 25 mM Tris-Cl pH 7.7, 1 mM TCEP, 5% glycerol, 10 mM MgCl2, 50 mM NaCl, 3 mM ATP, ATP regeneration; conditions: protein: recombinant; chain copies: 4; single strand; 2 copies per tetramer
Pf-SSB-MDCC [2] = biological target: T1, Pf-SSB-MDCC; experiment: fluorescence titration; 100 mM NaCl; stoichiometric, 1 tetramer per (dT)70; ~4-fold fluorescence increase; Titration and stopped-flow: 20 mM Tris-Cl pH 8, 0.1 mM EDTA, 100 mM NaCl, 1 mM TCEP, 25 C; ITC same with 200 mM NaCl; Rad51 filaments: 25 mM Tris-Cl pH 7.7, 1 mM TCEP, 5% glycerol, 10 mM MgCl2, 50 mM NaCl, 3 mM ATP, ATP regeneration; conditions: protein: recombinant; tags: MDCC on Cys93; chain copies: 4; single strand

Binder | binding result (Pf-SSB-MDCC [1]) | binding result (Pf-SSB) | binding result (Pf-SSB-MDCC [2])
B1 | binds | binds | –
B2 | – | – | binds
